Sequences and labels used below:
B1: NF2 (merlin) isoform 7, human, full length (507 aa, lacks exons 2-3 = isoform-1 residues 39-121; exon-16 C-terminus), P35240-4 (parent)
chain: MAGAIASRMSFSSLKRKQPKTFTVRIVTMDAEMEFNCEVKKQILDEKIYCPPEASVLLASYAVQAKYGDYDPSVHKRGFLAQEELLPKRVINLYQMTPEMWEERITAWYAEHRGRARDEAEMEYLKIAQDLEMYGVNYFAIRNKKGTELLLGVDALGLHIYDPENRLTPKISFPWNEIRNISYSDKEFTIKPLDKKIDVFKFNSSKLRVNKLILQLCIGNHDLFMRRRKADSLEVQQMKAQAREEKARKQMERQRLAREKQMREEAERTRDELERRLLQMKEEATMANEALMRSEETADLLAEKAQITEEEAKLLAQKAAEAEQEMQRIKATAIRTEEEKRLMEQKVLEAEVLALKMAEESERRAKEADQLKQDLQEAREAERRAKQKLLEIATKPTYPPMNPIPAPLPPDIPSFNLIGDSLSFDFKDTDMKRLSMEIEKEKVEYMEKSKHLQEQLNELKTEIEALKLKERETALDILHNENSDRGGSSKHNTIKKPQAQGRRPICI

Values joined by “and” are separate entries in the source; they are usually repeats but may differ in a detail not shown here. Identical values can stand only once.

The variants in one assay derive from B1. The assay is described as follows: reverse yeast two-hybrid deep mutational scan (rY2H-seq): NF2 isoform 7 mutant library as bait mated with wild-type prey strains; selection on medium lacking adenine for non-interacting pairs; NextSeq paired-end sequencing; enrichment vs …. The conditions noted are these: with EMILIN1 (elastin microfibril interfacer 1), Q9Y6C2; yeast diploids after mating (RBait_S3 x RPrey_S3), 30 °C, selection for reporter genes on NB agar; human ABL2 co-expressed as the kinase-dead K35M mutant …; HIGHER = WEAKER BINDING (the opposite of display enrichments): higher = stronger loss of interaction: reverse Y2H selects yeast in which bait and prey do NOT interact (growth without adenine), so a …; hits-only table; scale: rY2H score; numbering: uniprot, sequence starts at 1. In general terms: Reporter assays use an easily measured gene product as a stand-in for the process of interest.
Take D484A: the enrichment stood at 2.01.

As for D484L, the enrichment came out at 2.38.

On to M357K, for which the enrichment was found to be 2.48.

A378K: the enrichment stood at 5.56.

Consider Q376L, for which the enrichment was 2.08.

Regarding D374K, the enrichment was 2.38.

In the case of Q387L, the enrichment worked out at 1.46.

Take T397A: the enrichment came out at 2.04.

As for T397R, the enrichment was 2.87 and 2.64.

Regarding G419V, the enrichment came out at 2.41.

Turning to G419K, the enrichment stood at 1.49.

Consider G419A, for which the enrichment turned out to be 1.71.

On to D476K, for which the enrichment amounted to 6.16.

For the variant R383L, the enrichment is 3.93 and 2.71.

With A368K, the enrichment was 3.84 and 3.98.

In the case of N482K, the enrichment was 2.14.

Regarding D420A, the enrichment amounted to 2.04.

As for P396A, the enrichment is 1.61 and 2.83.

P396L: the enrichment came to 3.03.

Consider I418L, for which the enrichment came to 6.81.

As for I418K, the enrichment came out at 1.67.

For the variant I418W, the enrichment came to 16.4.

With P497L, the enrichment stood at 2.21.

Consider Q373E, for which the enrichment amounted to 3.3.

Regarding Q373A, the enrichment is 2.83 and 2.82.

In the case of Q373Y, the enrichment was found to be 2.52.

Staying with this assay, now noted: with KDM1A (lysine-specific histone demethylase 1A; the table's label AOF2 is a gene synonym of KDM1A), O60341; yeast diploids after mating (RBait_S3 x RPrey_S3), 30 °C, selection for reporter genes on NB agar; human tyrosine kinase ABL2 co-expressed as the active kinase …; HIGHER = WEAKER BINDING (the opposite of display enrichments): higher = stronger loss of interaction: reverse Y2H selects yeast in which bait and prey do NOT interact (growth without adenine), so a …; hits-only table; scale: rY2H score; numbering: uniprot, sequence starts at 1.
As to D484L, the enrichment came to 4.48.

Q345L: the enrichment was 2.39.

As for Q345E, the enrichment is 3.73.

As for Q387L, the enrichment came out at 2.07.

G419A: the enrichment was determined as 1.44.

As to K318A, the enrichment is 3.09.

Take D299L: the enrichment is 4.23.

On to P396A, for which the enrichment was determined as 4.55.

P497L: the enrichment worked out at 5.64.

The same assay, now with this note: with EMILIN1 (elastin microfibril interfacer 1), Q9Y6C2; yeast diploids after mating (RBait_S3 x RPrey_S3), 30 °C, selection for reporter genes on NB agar; human tyrosine kinase ABL2 co-expressed as the active kinase …; HIGHER = WEAKER BINDING (the opposite of display enrichments): higher = stronger loss of interaction: reverse Y2H selects yeast in which bait and prey do NOT interact (growth without adenine), so a …; hits-only table; scale: rY2H score; numbering: uniprot, sequence starts at 1.
On to R263E, for which the enrichment came out at 2.7.

With R263G, the enrichment came to 1.44.

Q279E: the enrichment amounted to 2.35.

On to V56K, for which the enrichment was 3.86.

With E259K, the enrichment stood at 3.41.

Q345L: the enrichment amounted to 2.57.

In the case of Q345E, the enrichment came out at 3.31.

With P98L, the enrichment amounted to 1.71.

Turning to V39G, the enrichment came out at 1.41.

With A378T, the enrichment amounted to 2.24.

As to Q376K, the enrichment turned out to be 2.11.

Consider Q387L, for which the enrichment was 1.83.

Turning to H75E, the enrichment was found to be 6.72.

As for Q261Y, the enrichment was 2.07.

Regarding T106L, the enrichment is 4.33.

Consider K170L, for which the enrichment turned out to be 4.44.

For E309A, the enrichment was 2.33.

Consider D198N, for which the enrichment turned out to be 1.92.

Regarding A107E, the enrichment amounted to 6.39.

Turning to D476K, the enrichment turned out to be 4.37.

Regarding L314N, the enrichment was determined as 18.6.

Regarding S55L, the enrichment amounted to 2.05.

K318A: the enrichment stood at 5.52.

Turning to E123D, the enrichment stood at 1.52.

As for D299L, the enrichment was 3.97 and 2.17.

D299T: the enrichment was found to be 1.88.

For P396L, the enrichment was determined as 2.65.

Turning to L348K, the enrichment was 2.78.

On to S294K, for which the enrichment was 4.59 and 3.72.

For M326R, the enrichment turned out to be 1.39.

V74S: the enrichment is 6.93.

Turning to R248K, the enrichment was found to be 1.55.

R248P: the enrichment was 1.52.

As for V209A, the enrichment was 5.24.

R270K: the enrichment was determined as 5.67.

Take F173S: the enrichment was 1.69.

As for P497L, the enrichment came out at 2.34.

On to S60F, for which the enrichment was 3.78.

In the case of Q373Y, the enrichment was found to be 3.17.

Regarding E362K, the enrichment was 4.17.

The same assay, now with this note: with NF2 C-terminal domain (wild type; homomeric NF2-NF2 interaction), P35240; yeast diploids after mating (RBait_S3 x RPrey_S3), 30 °C, selection for reporter genes on NB agar; human ABL2 co-expressed as the kinase-dead K35M mutant …; HIGHER = WEAKER BINDING (the opposite of display enrichments): higher = stronger loss of interaction: reverse Y2H selects yeast in which bait and prey do NOT interact (growth without adenine), so a …; hits-only table; partner unresolved; scale: rY2H score; numbering: uniprot, sequence starts at 1.
For R263E, the enrichment came out at 3.74.

As to Q345L, the enrichment was 1.49 and 2.6.

Take A378K: the enrichment was 4.21.

As to Q376L, the enrichment worked out at 3.07.

Turning to H75E, the enrichment came to 2.7.

In the case of A368K, the enrichment came to 5.98.

Consider D420A, for which the enrichment was determined as 2.35.

With D299L, the enrichment came out at 3.22.

As to S294K, the enrichment was 4.08.

Consider P497L, for which the enrichment is 2.98.

As to Q373E, the enrichment amounted to 1.81.

Staying with this assay, now noted: with KDM1A (lysine-specific histone demethylase 1A; the table's label AOF2 is a gene synonym of KDM1A), O60341; yeast diploids after mating (RBait_S3 x RPrey_S3), 30 °C, selection for reporter genes on NB agar; human ABL2 co-expressed as the kinase-dead K35M mutant …; HIGHER = WEAKER BINDING (the opposite of display enrichments): higher = stronger loss of interaction: reverse Y2H selects yeast in which bait and prey do NOT interact (growth without adenine), so a …; hits-only table; scale: rY2H score; numbering: uniprot, sequence starts at 1.
As for Q279E, the enrichment came to 4.82.

Regarding V56K, the enrichment was determined as 8.67.

As to Q345L, the enrichment was found to be 3.2.

For the variant A378T, the enrichment was found to be 1.71.

In the case of H75E, the enrichment was determined as 2.15.

On to T397A, for which the enrichment stood at 1.66.

As for T397R, the enrichment amounted to 2.17.

For the variant A368K, the enrichment is 10.5 and 10.2.

For the variant K318A, the enrichment came out at 3.56.

As to E123D, the enrichment amounted to 1.75.

In the case of D299L, the enrichment is 3.02 and 4.36.

As for P396L, the enrichment was 2.88.

L348K: the enrichment turned out to be 3.09.

For I418L, the enrichment is 6.54.

For the variant I418K, the enrichment worked out at 1.67.

For I418W, the enrichment was found to be 19.8.

On to F173S, for which the enrichment was determined as 3.95.

With Q373E, the enrichment came to 2.85.

Turning to Q373A, the enrichment is 7.31 and 3.66.

Staying with this assay, now noted: with PIK3R3 (phosphatidylinositol 3-kinase regulatory subunit gamma), Q92569; yeast diploids after mating (RBait_S3 x RPrey_S3), 30 °C, selection for reporter genes on NB agar; human tyrosine kinase ABL2 co-expressed as the active kinase …; HIGHER = WEAKER BINDING (the opposite of display enrichments): higher = stronger loss of interaction: reverse Y2H selects yeast in which bait and prey do NOT interact (growth without adenine), so a …; hits-only table; scale: rY2H score; numbering: uniprot, sequence starts at 1.
For V56K, the enrichment amounted to 3.28.

For Q345E, the enrichment came to 3.74.

D374K: the enrichment was found to be 5.15.

As to Q387L, the enrichment is 5.44.

For the variant H75E, the enrichment is 11.9 and 8.5.

For the variant A107E, the enrichment came to 6.23.

D476K: the enrichment is 5.97.

On to K318A, for which the enrichment amounted to 5.56.

As for P396A, the enrichment is 1.66.

As to R270K, the enrichment worked out at 4.09.

As to F173S, the enrichment was 4.73 and 5.14.

Regarding Q373A, the enrichment came to 4.51.

The values are drawn from PMC10244618.
